For one assay, the target named is T1, mouse CNTN4-10×His (mouse, UniProt Q69Z26 19-1000).
T1 sequence: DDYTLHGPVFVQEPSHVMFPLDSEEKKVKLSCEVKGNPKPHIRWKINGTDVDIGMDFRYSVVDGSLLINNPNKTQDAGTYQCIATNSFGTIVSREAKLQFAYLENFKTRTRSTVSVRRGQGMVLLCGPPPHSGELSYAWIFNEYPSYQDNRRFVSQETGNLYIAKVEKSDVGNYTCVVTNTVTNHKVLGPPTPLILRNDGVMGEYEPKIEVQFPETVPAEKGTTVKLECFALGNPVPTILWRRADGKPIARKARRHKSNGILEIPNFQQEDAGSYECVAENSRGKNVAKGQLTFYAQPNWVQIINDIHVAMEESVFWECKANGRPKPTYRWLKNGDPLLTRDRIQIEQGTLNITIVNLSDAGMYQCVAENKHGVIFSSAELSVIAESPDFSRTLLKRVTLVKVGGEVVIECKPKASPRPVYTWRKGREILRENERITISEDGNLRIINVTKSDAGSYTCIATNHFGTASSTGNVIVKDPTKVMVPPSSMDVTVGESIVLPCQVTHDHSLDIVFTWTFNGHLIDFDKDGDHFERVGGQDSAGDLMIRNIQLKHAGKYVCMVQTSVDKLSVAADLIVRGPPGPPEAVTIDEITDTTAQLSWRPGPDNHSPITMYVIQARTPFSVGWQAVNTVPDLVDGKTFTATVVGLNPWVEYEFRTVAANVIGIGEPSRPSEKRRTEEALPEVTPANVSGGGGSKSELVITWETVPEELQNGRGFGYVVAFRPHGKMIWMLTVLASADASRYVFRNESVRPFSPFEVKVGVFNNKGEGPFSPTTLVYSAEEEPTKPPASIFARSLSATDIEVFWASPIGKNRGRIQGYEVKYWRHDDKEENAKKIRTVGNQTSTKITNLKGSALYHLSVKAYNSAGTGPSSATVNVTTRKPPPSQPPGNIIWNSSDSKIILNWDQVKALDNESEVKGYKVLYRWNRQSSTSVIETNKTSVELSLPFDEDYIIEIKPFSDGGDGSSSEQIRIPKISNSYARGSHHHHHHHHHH
The assay can be described thus: ELISA, plate coated with 20 nM antigen, HRP anti-human kappa detection. The procedure:
(§1) ELISA test was performed on the monoclonal antibody hAb-1 prepared in Example 2. An ELISA plate was coated with 20 nM of antigens (human CNTN4-10×His or mouse CNTN4-10×His). For antibody binding, antibodies hAb-1 were serially diluted from a maximum of 1 μM to 0.0001 nM, thereby binding to the antigen. HRP conjugated anti-human kappa antibodies were used as a secondary antibody for antibody detection. Color was developed using ABTS, which is a color developing reagent, and the absorbance at 405 nm was measured.
(ELISA stands for enzyme-linked immunosorbent assay.)

The target in assay [1] is T2, human CNTN4-10×His (human, UniProt Q8IWV2 19-1000).
T2 construct: also called CNTN-4 protein
T2 sequence: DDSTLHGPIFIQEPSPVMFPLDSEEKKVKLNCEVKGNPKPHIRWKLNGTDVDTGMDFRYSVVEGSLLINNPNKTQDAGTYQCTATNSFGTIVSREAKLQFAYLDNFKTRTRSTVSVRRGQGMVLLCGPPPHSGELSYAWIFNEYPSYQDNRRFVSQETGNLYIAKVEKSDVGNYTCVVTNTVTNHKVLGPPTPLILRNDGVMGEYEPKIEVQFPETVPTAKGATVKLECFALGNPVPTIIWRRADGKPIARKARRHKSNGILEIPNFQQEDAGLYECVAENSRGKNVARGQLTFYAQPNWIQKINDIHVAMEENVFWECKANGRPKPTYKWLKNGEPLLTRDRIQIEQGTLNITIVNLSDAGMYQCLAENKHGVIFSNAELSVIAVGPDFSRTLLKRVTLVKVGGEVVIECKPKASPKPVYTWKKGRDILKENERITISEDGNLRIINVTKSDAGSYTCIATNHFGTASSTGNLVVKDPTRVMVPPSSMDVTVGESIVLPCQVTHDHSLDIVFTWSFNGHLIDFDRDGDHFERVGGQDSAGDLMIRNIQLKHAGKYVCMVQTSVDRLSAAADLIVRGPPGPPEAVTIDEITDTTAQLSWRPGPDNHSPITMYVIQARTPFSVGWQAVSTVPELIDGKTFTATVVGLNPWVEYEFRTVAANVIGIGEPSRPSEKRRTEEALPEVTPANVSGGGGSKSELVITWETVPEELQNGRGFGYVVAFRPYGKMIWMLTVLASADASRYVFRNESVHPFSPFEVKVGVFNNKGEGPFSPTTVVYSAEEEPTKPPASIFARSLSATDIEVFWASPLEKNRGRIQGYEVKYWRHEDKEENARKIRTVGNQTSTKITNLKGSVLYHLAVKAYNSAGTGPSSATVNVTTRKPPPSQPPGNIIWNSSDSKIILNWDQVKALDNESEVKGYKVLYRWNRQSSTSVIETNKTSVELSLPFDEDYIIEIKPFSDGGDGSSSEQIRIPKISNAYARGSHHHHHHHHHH
The description is as above. The procedure:
as §1

Assay [2] has as its target T2, human CNTN4-10×His. The assay can be described thus: ELISA on coated human CNTN4-10×His, competitor 500 nM CNTN4 receptor (APP) co-incubated. The procedure:
(§2) An ELISA plate was coated with 20 nM of antigens human CNTN4-10×His. For antibody binding, a mixture of antibodies hAb-1 diluted to a final concentration of 0 to 1,000 nM and human CNTN4 receptors (Amyloid precursor protein, APP) diluted to 0 or 500 nM was bound to the antigens. HRP conjugated anti-human kappa antibodies were used as a secondary antibody for antibody detection. Color was developed using ABTS, which is a color developing reagent, and the absorbance at 405 nm was measured.

In assay [3] the target is T3, human CNTN4 recombinant protein (human, UniProt Q8IWV2 19-1000).
T3 construct: No tag is stated, so it is kept apart from human CNTN4-10×His, though it may be the same preparation; also called Human CNTN-4 protein
T3 sequence (looked up): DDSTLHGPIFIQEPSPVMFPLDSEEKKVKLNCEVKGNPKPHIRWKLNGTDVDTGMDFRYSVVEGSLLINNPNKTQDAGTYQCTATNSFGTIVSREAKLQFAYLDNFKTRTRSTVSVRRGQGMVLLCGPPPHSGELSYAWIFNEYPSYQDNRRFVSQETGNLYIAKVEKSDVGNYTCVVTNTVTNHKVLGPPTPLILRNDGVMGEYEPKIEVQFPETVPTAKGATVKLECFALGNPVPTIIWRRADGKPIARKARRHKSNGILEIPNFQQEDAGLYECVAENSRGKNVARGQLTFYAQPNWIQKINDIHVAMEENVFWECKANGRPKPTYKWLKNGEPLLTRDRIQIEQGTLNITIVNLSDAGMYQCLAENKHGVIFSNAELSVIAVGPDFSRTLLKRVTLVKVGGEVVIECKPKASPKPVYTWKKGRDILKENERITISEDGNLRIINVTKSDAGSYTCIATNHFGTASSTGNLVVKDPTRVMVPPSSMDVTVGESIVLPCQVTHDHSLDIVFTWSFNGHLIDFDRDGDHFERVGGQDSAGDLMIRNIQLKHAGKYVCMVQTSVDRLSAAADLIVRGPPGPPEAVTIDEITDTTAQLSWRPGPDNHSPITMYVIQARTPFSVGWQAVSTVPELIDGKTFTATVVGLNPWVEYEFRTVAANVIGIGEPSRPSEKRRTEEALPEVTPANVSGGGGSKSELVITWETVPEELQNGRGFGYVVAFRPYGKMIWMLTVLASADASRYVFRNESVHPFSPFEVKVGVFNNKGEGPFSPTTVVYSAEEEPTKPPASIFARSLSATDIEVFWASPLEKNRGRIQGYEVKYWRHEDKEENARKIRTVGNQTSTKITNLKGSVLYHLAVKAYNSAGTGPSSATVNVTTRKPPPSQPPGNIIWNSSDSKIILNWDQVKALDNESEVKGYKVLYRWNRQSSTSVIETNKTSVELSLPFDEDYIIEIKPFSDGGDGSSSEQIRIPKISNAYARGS
The assay can be described thus: SPR (CM5 chip), hAb-1 captured by anti-human IgG Fc, human CNTN4 400 nM to 0.78 nM as analyte. The procedure: SPR test was performed on the monoclonal antibody hAb-1 prepared in Example 2. More specifically, in order to bind anti-human IgG Fc (capture antibody) using amine coupling, CM5 chip was mounted, running buffer was allowed to flow, the chip was activated, and then capture antibody was attached thereto. […] to which capture antibody was not attached was deactivated using ethanolamine, and then regeneration was performed using 3M magnesium chloride to clear analytes except capture antibody. The hAb-1 prepared at a concentration of 0.05 μg/mL was allowed to flow for 30 seconds at a rate of 10 μL/min for binding. Thereafter, human CNTN4 (400 nM to 0.78 nM) prepared by sequential dilution as an antigen was allowed to flow at a rate of 30 μL/min for 3 minutes to be bound, and dissociation was performed for 5 minutes.
Then, in order to clear all analytes attached to the capture antibody, a regeneration solution (3M magnesium chloride) was allowed to flow at a rate of […] for 30 seconds, and regeneration was performed. For each concentration of antigen, binding of hAb-1, binding of antigen, dissociation, and regeneration were repeated in order.

Assay [4] addresses T2, human CNTN4-10×His. The assay can be described thus: ELISA on coated human CNTN4-10×His, co-incubated with 0 nM CNTN4 receptor (APP); 0 nM CNTN-4 receptor (co-incubation). As to the method:
as §2

The values that follow come from patent US20240209081A1 (GENOME, published 2024).

B1: anti-CNTN4 IgG4-S228P monoclonal antibody hAb-1 (antibody, V domains shown)
VH: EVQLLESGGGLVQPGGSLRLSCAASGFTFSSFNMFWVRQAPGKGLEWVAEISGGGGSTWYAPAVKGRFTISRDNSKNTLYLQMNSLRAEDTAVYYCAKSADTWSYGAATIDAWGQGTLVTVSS
VL: ELTQDPAVSVALGQTVRITCSGSSGSYGWYQQKPGQAPVLVIYDNTNRPSGIPDRFSGSSSGNTASLTITGAQAEDEADYYCGGYDGSTDVFGGGTKLTVL
A word on the EC50: it is the concentration needed to bring the measured effect to its halfway point. As usually defined, the Kd is the constant that tells how readily two partners part at equilibrium. Regarding B1, the concentration giving a half-maximal response (EC50) came out at 0.12 nM with mouse CNTN4-10×His, 0.17 nM in the assay with human CNTN4-10×His [1], 0.24 nM in the assay with human CNTN4-10×His [2] and 0.17 nM with human CNTN4-10×His [4]. Moreover, the equilibrium dissociation constant (Kd) in assay [3] came out at 35.6 nM.
